Reference: patent US20210380703A1
Where a chain is given by its changes, count along the chain named.

B1: 373_E05 (antibody, V domains shown)
VH: EVQLLESGGGLVQPGGSLRLSCAASGFTFDSYGMNWVRQAPGKGLEWVSNINYNGGYTSYADSVKGRFTISRDNSKNTLYLQMNSLRAEDTAVYYCARSANWHDTALDYWGQGTLVTVSS
VL: DIQMTQSPSSLSASVGDRVTITCRASQSILSYVNWYQQKPGKAPKLLIYAVTSRASGVPSRFSGSGSGTDFTLTISSLQPEDFATYYCQQSYDLPLTFGGGTKVEIK
B2: 372_C07 (antibody, V domains shown)
VH: B1 VH with D30S, S31D, G33S, G55S, A106H
VL: B1 VL with V33L, L47V, V51A, A55H, Y92D, D93N, L94T
B3: 374_B12 (antibody, V domains shown)
VH: B1 VH with G33S, S49A, N50G, S59G, A106H
VL: B1 VL with L30S, V33L, L47V, V51A, L94N
B4: 373_B10 (antibody, V domains shown)
VH: B1 VH
VL: B1 VL with V33L, V51A
B5: 371_F01 (antibody, V domains shown)
VH: B1 VH with D30S, G33S, S49A, N50G, S59G
VL: B1 VL with S31T, L47V, V51A, R54L, D93N, L94N
B6: 373_G12 (antibody, V domains shown)
VH: B1 VH with D30S, G33S
VL: B1 VL with V33L, V51T, R54L, D93N, L94S
B7: 372_F08 (antibody, V domains shown)
VH: B1 VH with D30S, S31D, G33S, G55S, S59G
VL: B1 VL with S31T, L47V, V51A, L94T
B8: 371_F06 (antibody, V domains shown)
VH: B1 VH with G33S, S49A
VL: B1 VL with L30V, V33L, L47V, V51A, A55H, D93N, L94S
B9: 373_E01 (antibody, V domains shown)
VH: B1 VH with D30S, N50G, T58K, S59G
VL: B1 VL with L30V, V51A, A55H, D93N, L94N
B10: 371_D09 (antibody, V domains shown)
VH: B1 VH with D30S, G33S, G55S, S59G
VL: B1 VL with S31T, V33L, L47V, V51A, D93N, L94N
B11: 371_G10 (antibody, V domains shown)
VH: B1 VH with D30S, G33S, N50G, T58K
VL: B1 VL with L30S, V51A, A55H, Y92D, L94S
B12: 371_F08 (antibody, V domains shown)
VH: B1 VH with S31D, G33S, N50G, S59G
VL: B1 VL with L30V, L47V, V51A, A55H, D93E, L94S
B13: 374_B04 (antibody, V domains shown)
VH: B1 VH with D30S, G33S, G55S, S59G
VL: B1 VL with L30V, V33L, D93E, L94S
B14: 373_A10 (antibody, V domains shown)
VH: B1 VH with D30S, N50G, G55S
VL: B1 VL with V33L, L47V, V51A
B15: 373_C08 (antibody, V domains shown)
VH: B1 VH with D30S, G33S, S49A
VL: B1 VL with L30I, V33L, V51A, T52S, R54L, A55Q, D93N, L94N
B16: 374_D08 (antibody, V domains shown)
VH: B1 VH with N50G, G55S, S59G, A106H
VL: B1 VL with S31T, V33L, V51A, A55H, D93E, L94S
B17: 374_C03 (antibody, V domains shown)
VH: B1 VH with G33S, N50G, G55S
VL: B1 VL with S31T, V33L, V51A, L94S
B18: 373_A08 (antibody, V domains shown)
VH: B1 VH with S59G
VL: B1 VL with L30V, V51A, R54L, D93S
B19: 371_F04 (antibody, V domains shown)
VH: B1 VH with G33S, S49A, N50G, G55S, T58K, S59G
VL: B1 VL with V33L, V51A, A55H, D93N, L94N
B20: 371_H09 (antibody, V domains shown)
VH: B1 VH with G33S
VL: B1 VL with S31T, L47V, V51A, R54L, L94S
B21: 373_B12 (antibody, V domains shown)
VH: B1 VH with N50S, G55S
VL: B1 VL with L30V, V51A, L94S
B22: 372_B04 (antibody, V domains shown)
VH: B1 VH with S49A
VL: B1 VL with L47V, V51A, R54L, L94S
B23: 373_H05 (antibody, V domains shown)
VH: B1 VH with D30S, S31D, G33S, S49A, T58K, S59G
VL: B1 VL with S31T, L47V, V51A, D93E, L94T
B24: 372_D02 (antibody, V domains shown)
VH: B1 VH with D30S, N35H, S49A, N50G, S59G
VL: B1 VL with S31T, V33L, L47V, V51A, L94N
B25: 373_C04 (antibody, V domains shown)
VH: B1 VH with D30S, G33S, S49A, G55S, S59G
VL: B1 VL with L30I, L47V, D93N, L94S
B26: 373_B04 (antibody, V domains shown)
VH: B1 VH with D30S, S49A, N50G, G55S, T58K, S59G
VL: B1 VL with S31T, V33L, V51A, D93E, L94T
B27: 372_F03 (antibody, V domains shown)
VH: B1 VH with D30S, S49A, N50G
VL: B1 VL with V33L, L47V, V51A, L94T
B28: 374_C06 (antibody, V domains shown)
VH: B1 VH with S31D, G33S, N50S, G55S, T58K, S59G
VL: B1 VL with S31T, V51A, D93N, L94S
B29: 373_E12 (antibody, V domains shown)
VH: B1 VH with D30S, G33S, S49A, S59G
VL: B1 VL with L47V, V51A, L94T
B30: 374_A07 (antibody, V domains shown)
VH: B1 VH with D30S, G33S, N50G, G55S, T58K, S59G
VL: B1 VL
B31: 373_E07 (antibody, V domains shown)
VH: B1 VH with D30S, S49A
VL: B1 VL with S31T, V51A, R54L, D93E, L94T
B32: 373_B06 (antibody, V domains shown)
VH: B1 VH with D30S, S31D, G33S, S49A, N50G, S59G
VL: B1 VL with S31T, L47V, V51A, A55H, D93E, L94S
B33: 373_D10 (antibody, V domains shown)
VH: B1 VH with G33S, G55S, T58K, S59G
VL: B1 VL with V51A
B34: 373_H01 (antibody, V domains shown)
VH: B1 VH with G33S, S49A, S59G
VL: B1 VL with V33L, L47V, V51A, L94N
B35: 372_F06 (antibody, V domains shown)
VH: B1 VH with D30S, S31D, S49A, N50G, T58K
VL: B1 VL with V51A, R54L, D93E, L94T
B36: 373_C11 (antibody, V domains shown)
VH: B1 VH with D30S, G33S, N50G, G55S, S59G
VL: B1 VL with S31T, L47V, D93E, L94T
B37: 373_D01 (antibody, V domains shown)
VH: B1 VH with G33S, N50G, G55S, T58K, A106H
VL: B1 VL with L47V, V51A, L94S
B38: 373_D05 (antibody, V domains shown)
VH: B1 VH with D30S, G33S, N50G, G55S, T58K, S59G
VL: B1 VL with V33L, L47V, V51A, L94S
B39: 373_G10 (antibody, V domains shown)
VH: B1 VH with D30S, S31D, T58K
VL: B1 VL with L30V, V51A
B40: 372_A04 (antibody, V domains shown)
VH: B1 VH with G33S, N50G, G55S
VL: B1 VL with S31T, V33L, L47V, V51A, D93E, L94T
B41: 374_B06 (antibody, V domains shown)
VH: B1 VH with G33S, S49A, N50G, G55S, T58K, S59G, A106H
VL: B1 VL with S31T, V51A, L94T
B42: 373_D04 (antibody, V domains shown)
VH: B1 VH with G33S, N50G, G55S, T58K, S59G
VL: B1 VL with V33L, V51A, A55H, L94S
B43: 373_C06 (antibody, V domains shown)
VH: B1 VH with D30S, G33S, S49A, N50G, S59G
VL: B1 VL with L30V, L47V, V51A, L94T
B44: 376_F06 (antibody, V domains shown)
VH: B1 VH with D30S, N50G, S59G, S99G, A106H
VL: B1 VL with S31T, L47V, V51A, D93E, L94T
B45: 376_H04 (antibody, V domains shown)
VH: B1 VH with D30S, G33S, S49A, N50G, T58K, S59G, S99G
VL: B1 VL with S31T, L47V, V51A
B46: 376_G06 (antibody, V domains shown)
VH: B1 VH with D30S, S49A, N50G, S59G, S99G, A106H
VL: B1 VL with L30V, L47V, V51A, D93N, L94S
B47: 376_G10 (antibody, V domains shown)
VH: B1 VH with S49A, N50G, S99G
VL: B1 VL with V51A, D93E, L94S
B48: 376_G05 (antibody, V domains shown)
VH: B1 VH with D30S, G33S, S49A, N50G, S99G
VL: B1 VL with L30I, L47V, V51A, D93E, L94S

Molecular target: Human Fc (human)
Experiment: ELISA, negative control

**Q.** With B1 as the binder, how does the optical density read?
**A.** Its optical density is 0.176 OD.

**Q.** How did the optical density turn out when B2 was run?
**A.** The optical density was 0.279 OD.

**Q.** B3 was tested. Which optical density did it give?
**A.** The optical density was 0.257 OD.

**Q.** B4 was tested. Which optical density did it give?
**A.** The optical density was 0.174 OD.

**Q.** Which optical density does the source give for B5 here?
**A.** The optical density was 0.41 OD.

**Q.** How did the optical density turn out when B6 was run?
**A.** The optical density was 0.174 OD.

**Q.** With B7 as the binder, how does the optical density read?
**A.** Its optical density is 0.335 OD.

**Q.** B8 was tested. Which optical density did it give?
**A.** Its optical density is 0.289 OD.

**Q.** B9 was tested. Which optical density did it give?
**A.** Its optical density is 0.16 OD.

**Q.** How did the optical density turn out when B10 was run?
**A.** Its optical density is 0.268 OD.

**Q.** With B11 as the binder, how does the optical density read?
**A.** Its optical density is 0.439 OD.

**Q.** B12 was tested. Which optical density did it give?
**A.** The optical density was 0.301 OD.

**Q.** With B13 as the binder, how does the optical density read?
**A.** Its optical density is 0.222 OD.

**Q.** With B14 as the binder, how does the optical density read?
**A.** Its optical density is 0.175 OD.

**Q.** How did the optical density turn out when B15 was run?
**A.** The optical density was 0.16 OD.

**Q.** Which optical density does the source give for B16 here?
**A.** Its optical density is 0.201 OD.

**Q.** For B17, which optical density is on record?
**A.** Its optical density is 0.208 OD.

**Q.** B18 was tested. Which optical density did it give?
**A.** Its optical density is 0.195 OD.

**Q.** For B19, which optical density is on record?
**A.** The optical density was 0.345 OD.

**Q.** For B20, which optical density is on record?
**A.** The optical density was 0.32 OD.

**Q.** How did the optical density turn out when B21 was run?
**A.** Its optical density is 0.172 OD.

**Q.** With B22 as the binder, how does the optical density read?
**A.** The optical density was 0.333 OD.

**Q.** How did the optical density turn out when B23 was run?
**A.** The optical density was 0.201 OD.

**Q.** For B24, which optical density is on record?
**A.** The optical density was 0.433 OD.

**Q.** How did the optical density turn out when B25 was run?
**A.** Its optical density is 0.157 OD.

**Q.** B26 was tested. Which optical density did it give?
**A.** The optical density was 0.176 OD.

**Q.** Which optical density does the source give for B27 here?
**A.** Its optical density is 0.438 OD.

**Q.** B28 was tested. Which optical density did it give?
**A.** The optical density was 0.18 OD.

**Q.** For B29, which optical density is on record?
**A.** The optical density was 0.17 OD.

**Q.** With B30 as the binder, how does the optical density read?
**A.** Its optical density is 0.206 OD.

**Q.** B31 was tested. Which optical density did it give?
**A.** The optical density was 0.294 OD.

**Q.** B32 was tested. Which optical density did it give?
**A.** Its optical density is 0.221 OD.

**Q.** Which optical density does the source give for B33 here?
**A.** The optical density was 0.189 OD.

**Q.** With B34 as the binder, how does the optical density read?
**A.** The optical density was 0.198 OD.

**Q.** B35 was tested. Which optical density did it give?
**A.** Its optical density is 0.38 OD.

**Q.** B36 was tested. Which optical density did it give?
**A.** Its optical density is 0.171 OD.

**Q.** With B37 as the binder, how does the optical density read?
**A.** The optical density was 0.174 OD.

**Q.** Which optical density does the source give for B38 here?
**A.** The optical density was 0.179 OD.

**Q.** How did the optical density turn out when B39 was run?
**A.** The optical density was 0.2 OD.

**Q.** Which optical density does the source give for B40 here?
**A.** The optical density was 0.339 OD.

**Q.** B41 was tested. Which optical density did it give?
**A.** The optical density was 0.157 OD.

**Q.** B42 was tested. Which optical density did it give?
**A.** Its optical density is 0.168 OD.

**Q.** For B43, which optical density is on record?
**A.** Its optical density is 0.163 OD.

Molecular target: Human Fc (human)
Experiment: ELISA; negative control

**Q.** For B44, which optical density is on record?
**A.** The optical density was 0.284 OD.

**Q.** For B45, which optical density is on record?
**A.** The optical density was 0.34 OD.

**Q.** For B46, which optical density is on record?
**A.** The optical density was 0.267 OD.

**Q.** For B47, which optical density is on record?
**A.** The optical density was 0.321 OD.

**Q.** Which optical density does the source give for B48 here?
**A.** The optical density was 0.252 OD.
